Results from patent US5747449A (Corvas International, Inc., priority 1993, dated 1998).

Biological target: Factor Xa (Homo sapiens, UniProt P00742)
Assay: Factor Xa amidolytic assay (chromogenic substrate)
Assay type: biochemical
Details: mutants produced in E. coli; read-out: Ki (nM), inhibition constant for Factor Xa
Description: Trypsin, Factor Xa, thrombin, Factor XIIa and plasmin amidolytic assays […]
Briefly, the following were added to a 96-well microtiter plate well (see Table below):
50 μl inhibitor (various concentrations as required, diluted in TESA);
50 μl protease (suitable concentration, diluted in TBSA)
The plate was incubated at room temperature for 30 minutes or for 2 hours (Factor Xa); and 50 μl chromogenic substrate was added (as required, diluted in water). The initial rate was measured at […] during 10-30 minutes at room temperature.
To determine the inhibition constants, the initial rate (vi) was measured at various inhibitor ([It ]) and substrate concentrations, and the apparent inhibition constant (Ki) was determined by fitting the data obtained at each substrate concentration with the following equation: […]
vi /vo ={([Et ]-[It ]-Ki^*) +[([It […]
where vo is the uninhibited initial rate and [Et ] is the total enzyme concentration. Extrapolation of Ki^* values to zero substrate concentrations yields a value for the real inhibition constant.

Factor Xa, sequence (P00742 235-488 limits assumed): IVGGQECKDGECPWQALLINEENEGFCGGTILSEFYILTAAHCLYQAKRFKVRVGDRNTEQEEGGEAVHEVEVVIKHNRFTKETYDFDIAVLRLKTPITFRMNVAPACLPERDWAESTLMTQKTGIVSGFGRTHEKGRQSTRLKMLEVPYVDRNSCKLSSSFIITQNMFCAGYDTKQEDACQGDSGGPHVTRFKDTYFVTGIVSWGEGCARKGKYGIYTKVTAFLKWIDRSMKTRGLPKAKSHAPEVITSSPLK
Factor Xa, sequence (P00742 41-179 partner limits assumed): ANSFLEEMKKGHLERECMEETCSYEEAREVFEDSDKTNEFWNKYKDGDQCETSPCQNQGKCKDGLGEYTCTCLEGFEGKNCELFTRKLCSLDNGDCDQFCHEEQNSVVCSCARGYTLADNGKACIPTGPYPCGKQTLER

| Ki | Substance |
| --- | --- |
| 2 nM | 5L84: BPTI with substitutions 11Glu 13Leu 15Arg 17Leu 18His 19Lys 34Tyr 39Phe 46Glu |
| 4 nM | 5L48: BPTI with substitutions 11Glu 13Trp 15Arg 17Leu 18His 19His 34Ile 39Gly 46Glu |
| 5 nM | 5L69: BPTI with substitutions 11Pro 13Ile 15Arg 17Leu 18His 19Lys 34Tyr 39Met 46Glu |
| 1.5 nM | 5L68: BPTI with substitutions 11Ser 13Leu 15Arg 17Leu 18His 19Lys 34Tyr 39Phe 46Glu |
| 5 nM | 5L65: BPTI with substitutions 11Ser 13Leu 15Arg 17Leu 18His 19Lys 34Tyr 39Tyr 46Glu |
| 5 nM | 3L55: BPTI with substitutions 13Ile 15Arg 17Ala 18Phe 19Asn 39Leu 46Glu |
| 4 nM | 3L60: BPTI with substitutions 13Ile 15Arg 17Tyr 18Tyr 19Lys 39Leu 46Glu |
